Source: patent US20140093973A1 (BOARD OF REGENTS OF THE UNIVERSITY OF OKLAHOMA, published 2014)
Read-outs that look alike come from different tables or passages of the source. Ends that are not written are not given here.

Experiments:
[1] = target: soluble HLA-A*0201 (sHLA-A*0201) (human); test: FP screen
[2] = target: T1, soluble HLA-B*2705 (sHLA-B*2705) (human); test: FP screen
T1 construct: Recombinant soluble class I with endogenous peptides, made as m1; negative control

[3] = target: T2, soluble HLA-A*6801 (sHLA-A*6801) (human); test: FP screen
T2 construct: Recombinant soluble class I with endogenous peptides, made as m1

soluble HLA-A*0101 [4] = target: T3, soluble HLA-A*0101 (human); test: FP screen
T3 construct: Member of the panel of 53 single-specificity sHLA

soluble HLA-A*3601 = target: T4, soluble HLA-A*3601 (human); test: FP screen
T4 construct: Member of the panel of 53 single-specificity sHLA

soluble HLA-A*3402 = target: T5, soluble HLA-A*3402 (human); test: FP screen
T5 construct: Member of the panel of 53 single-specificity sHLA

soluble HLA-A*2601 = target: T6, soluble HLA-A*2601 (human); test: FP screen
T6 construct: Member of the panel of 53 single-specificity sHLA

soluble HLA-B*1302 [5] = target: T7, soluble HLA-B*1302 (human); test: FP screen
T7 construct: Member of the panel of 53 single-specificity sHLA

soluble HLA-B*1512 [6] = target: T8, soluble HLA-B*1512 (human); test: FP screen
T8 construct: Member of the panel of 53 single-specificity sHLA

soluble HLA-A*0301 [7] = target: T9, soluble HLA-A*0301 (human); test: FP screen
T9 construct: Member of the panel of 53 single-specificity sHLA

[8] = target: T10, soluble HLA-A*6901 (sHLA-A*6901) (human); test: FP screen
T10 construct: Recombinant soluble class I with endogenous peptides, made as m1

soluble HLA-A*3002 [9] = target: T11, soluble HLA-A*3002 (human); test: FP screen
T11 construct: Member of the panel of 53 single-specificity sHLA

soluble HLA-B*1801 [10] = target: T12, soluble HLA-B*1801 (human); test: FP screen
T12 construct: Member of the panel of 53 single-specificity sHLA

soluble HLA-B*4002 [11] = target: T13, soluble HLA-B*4002 (human); test: FP screen
T13 construct: Member of the panel of 53 single-specificity sHLA

soluble HLA-B*4001 [12] = target: T14, soluble HLA-B*4001 (human); test: FP screen
T14 construct: Member of the panel of 53 single-specificity sHLA

soluble HLA-B*4402 [13] = target: T15, soluble HLA-B*4402 (human); test: FP screen
T15 construct: Member of the panel of 53 single-specificity sHLA

[14] = target: T16, soluble HLA-A*4301 (sHLA-A*4301) (human); test: FP screen
T16 construct: Recombinant soluble class I with endogenous peptides, made as m1

[15] = target: T17, soluble HLA-A*1102 (sHLA-A*1102) (human, UniProt P04439 25-308; P61769 21-119); test: FP screen
T17 construct: Recombinant soluble class I with endogenous peptides, made as m1

soluble HLA-A*2902 [16] = target: T18, soluble HLA-A*2902 (human); test: FP screen of 53 sHLA with FITC-peptide
T18 construct: Member of the panel of 53 single-specificity sHLA

soluble HLA-B*1501 [17] = target: T19, soluble HLA-B*1501 (human); test: FP screen of 53 sHLA with FITC-peptide
T19 construct: Member of the panel of 53 single-specificity sHLA

soluble HLA-A*2402 [18] = target: T20, soluble HLA-A*2402 (human); test: FP screen of 53 sHLA with FITC-peptide
T20 construct: Member of the panel of 53 single-specificity sHLA

soluble HLA-A*2301 [19] = target: T21, soluble HLA-A*2301 (human); test: FP screen of 53 sHLA with FITC-peptide
T21 construct: Member of the panel of 53 single-specificity sHLA

soluble HLA-A*6601 [20] = target: T22, soluble HLA-A*6601 (human); test: FP screen of 53 sHLA with FITC-peptide
T22 construct: Member of the panel of 53 single-specificity sHLA

soluble HLA-B*4501 [21] = target: T23, soluble HLA-B*4501 (human); test: FP screen of 53 sHLA with FITC-peptide
T23 construct: Member of the panel of 53 single-specificity sHLA

[22] = target: soluble HLA-A*0201 (sHLA-A*0201) (human); test: FP screen; remark: listed apart in the source
[23] = target: T1, soluble HLA-B*2705 (sHLA-B*2705); test: FP screen; remark: listed apart in the source
[24] = target: T2, soluble HLA-A*6801 (sHLA-A*6801); test: FP screen; remark: listed apart in the source
soluble HLA-B*1302 [25] = target: T7, soluble HLA-B*1302; test: FP screen; remark: listed apart in the source
soluble HLA-B*1501 [26] = target: T19, soluble HLA-B*1501; test: FP screen
soluble HLA-B*1512 [27] = target: T8, soluble HLA-B*1512; test: FP screen; remark: listed apart in the source
soluble HLA-A*0301 [28] = target: T9, soluble HLA-A*0301; test: FP screen; remark: listed apart in the source
[29] = target: T10, soluble HLA-A*6901 (sHLA-A*6901); test: FP screen; remark: listed apart in the source
soluble HLA-A*2402 [30] = target: T20, soluble HLA-A*2402; test: FP screen
soluble HLA-A*2301 [31] = target: T21, soluble HLA-A*2301; test: FP screen
soluble HLA-A*6601 [32] = target: T22, soluble HLA-A*6601; test: FP screen
soluble HLA-B*4501 [33] = target: T23, soluble HLA-B*4501; test: FP screen
soluble HLA-A*3002 [34] = target: T11, soluble HLA-A*3002; test: FP screen; remark: listed apart in the source
soluble HLA-B*1801 [35] = target: T12, soluble HLA-B*1801; test: FP screen; remark: listed apart in the source
soluble HLA-B*4002 [36] = target: T13, soluble HLA-B*4002; test: FP screen; remark: listed apart in the source
soluble HLA-B*4001 [37] = target: T14, soluble HLA-B*4001; test: FP screen; remark: listed apart in the source
soluble HLA-B*4402 [38] = target: T15, soluble HLA-B*4402; test: FP screen; remark: listed apart in the source
[39] = target: T17, soluble HLA-A*1102 (sHLA-A*1102); test: FP screen; remark: listed apart in the source
soluble HLA-A*0101 [40] = target: T3, soluble HLA-A*0101; test: FP screen of 53 sHLA with FITC-peptide
soluble HLA-A*2902 [41] = target: T18, soluble HLA-A*2902; test: FP screen of 53 sHLA with FITC-peptide; remark: listed apart in the source

Measured: binding result

QYSWFKNGTF (not fully specified; also: FITC-labeled, position not given here) [QYSWFKNGTF, FITC-labeled A24-like peptide]
no binding (tested: 100 ug/ml sHLA): [1] | [2] | [3] | soluble HLA-A*0101 [4] | soluble HLA-A*3601 | soluble HLA-A*3402 | soluble HLA-A*2601 | soluble HLA-B*1302 [5] | soluble HLA-B*1512 [6] | soluble HLA-A*0301 [7] | [8] | soluble HLA-A*3002 [9] | soluble HLA-B*1801 [10] | soluble HLA-B*4002 [11] | soluble HLA-B*4001 [12] | soluble HLA-B*4402 [13] | [14] | [15]
binds: soluble HLA-A*2902 [16] | soluble HLA-B*1501 [17] | soluble HLA-A*2402 [18] | soluble HLA-A*2301 [19] | soluble HLA-A*6601 [20] | soluble HLA-B*4501 [21]

YLEPAKAKY (also: FITC-labeled, position not given here) [YLEPAKAKY, FITC-labeled A1-like peptide]
no binding (tested: 100 ug/ml sHLA): [22] | [23] | [24] | soluble HLA-B*1302 [25] | soluble HLA-B*1501 [26] | soluble HLA-B*1512 [27] | soluble HLA-A*0301 [28] | [29] | soluble HLA-A*2402 [30] | soluble HLA-A*2301 [31] | soluble HLA-A*6601 [32] | soluble HLA-B*4501 [33] | soluble HLA-A*3002 [34] | soluble HLA-B*1801 [35] | soluble HLA-B*4002 [36] | soluble HLA-B*4001 [37] | soluble HLA-B*4402 [38] | [39]
binds: soluble HLA-A*0101 [40] | soluble HLA-A*2902 [41]
